Experimental findings from publication PMC8922275, “DNA-Dependent Binding of Nargenicin to DnaE1 Inhibits Replication in Mycobacterium tuberculosis” (ACS Infectious Diseases, 2022) are described below.

Usually IC50 stands for the concentration needed to halve the response being measured. As usually defined, the Kd is the equilibrium constant for the complex coming apart.

Data set [1] concerns the target T1, DNA polymerase III α (Pol IIIα) (Escherichia coli, UniProt P10443).
T1 construct: gene dnaE
Kind of data set: real-time fluorescence-quench DNA polymerase assay. Format: biochemical.

Data set [2] addresses T2, DnaE1 (Mycobacterium tuberculosis, UniProt P9WNT7).
T2 construct: full-length
T2 sequence (P9WNT7 1-1184): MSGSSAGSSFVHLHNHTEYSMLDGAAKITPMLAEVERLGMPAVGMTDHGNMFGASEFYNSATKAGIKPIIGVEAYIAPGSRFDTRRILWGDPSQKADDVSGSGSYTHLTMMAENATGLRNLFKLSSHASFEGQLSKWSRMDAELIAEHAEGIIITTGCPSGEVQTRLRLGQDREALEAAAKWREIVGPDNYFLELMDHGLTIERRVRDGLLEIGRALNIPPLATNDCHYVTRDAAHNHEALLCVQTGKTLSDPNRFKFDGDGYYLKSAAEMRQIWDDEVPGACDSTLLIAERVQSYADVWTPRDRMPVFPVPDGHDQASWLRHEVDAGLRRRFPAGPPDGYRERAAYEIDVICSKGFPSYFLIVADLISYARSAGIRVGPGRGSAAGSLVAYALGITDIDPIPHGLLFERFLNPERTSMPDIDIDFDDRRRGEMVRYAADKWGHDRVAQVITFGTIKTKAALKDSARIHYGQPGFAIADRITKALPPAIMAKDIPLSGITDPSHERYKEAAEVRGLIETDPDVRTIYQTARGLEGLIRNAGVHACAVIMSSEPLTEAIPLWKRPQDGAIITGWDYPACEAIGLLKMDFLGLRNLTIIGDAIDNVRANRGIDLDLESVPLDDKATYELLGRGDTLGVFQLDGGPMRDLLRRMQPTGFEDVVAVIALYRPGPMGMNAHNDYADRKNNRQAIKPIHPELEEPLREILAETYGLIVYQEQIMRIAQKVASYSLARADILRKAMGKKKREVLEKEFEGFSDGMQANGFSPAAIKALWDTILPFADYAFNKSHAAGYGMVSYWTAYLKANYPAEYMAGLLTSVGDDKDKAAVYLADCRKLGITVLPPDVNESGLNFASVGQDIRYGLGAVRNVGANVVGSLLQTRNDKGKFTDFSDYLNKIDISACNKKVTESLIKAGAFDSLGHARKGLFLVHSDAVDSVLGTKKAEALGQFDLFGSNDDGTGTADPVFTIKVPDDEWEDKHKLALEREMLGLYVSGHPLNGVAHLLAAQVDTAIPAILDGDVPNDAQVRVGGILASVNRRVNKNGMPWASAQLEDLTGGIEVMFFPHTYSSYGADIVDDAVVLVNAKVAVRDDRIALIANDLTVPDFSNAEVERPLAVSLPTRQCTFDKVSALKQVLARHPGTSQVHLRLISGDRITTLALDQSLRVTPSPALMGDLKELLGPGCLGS
Kind of data set: ([…] Å) with DNA; […]. Format: biochemical.

The target in data set [3] is DnaE (Staphylococcus aureus, UniProt Q5HF71). As to the kind of experiment: real-time fluorescence-quench DNA polymerase assay (text […]; Figure […] legend […]). Format: biochemical.
Data set [4] deals with T3, DnaE1 (replicative DNA polymerase) (Mycobacterium tuberculosis, UniProt P9WNT7 1-1184).
T3 sequence: T2 sequence (P9WNT7 1-1184)
Kind of data set: fluorescence anisotropy. Particulars: protein: recombinant; label: 5'-Cy3 on primer (strand 1); 24 bp duplex, 5' overhang 30 nt on template. For orientation: Fluorescence polarisation rises when a labelled molecule tumbles more slowly, as on binding a larger partner.

Data set [5] addresses DnaE S765L (Staphylococcus aureus, UniProt Q9F1K0 1-1065, S765L). As to the kind of experiment: fluorescence anisotropy; Anisotropy: 5 nM DNA, 25 mM HEPES pH 7.5, 50 mM potassium glutamate, 2 mM DTT, 0.5 mg/mL BSA, 24 °C. Cryo-EM: 20 mM PIPES pH 7.0, 50 mM potassium glutamate, 5 mM MgCl2, 2 mM DTT, 0.01% Tween-20. Particulars: protein: recombinant; label: 5'-Cy3 on primer (strand 1); 24 bp duplex, 5' overhang 30 nt on template.

The target of data set [6] is Pol IIIα (replicative DNA polymerase) (Escherichia coli, UniProt P10443 1-1160). Described as above. The following applies: protein: recombinant; label: 5'-Cy3 on primer (strand 1); 24 bp duplex, 5' overhang 30 nt on template.
The target of data set [7] is T4, DnaE (replicative DNA polymerase) (Staphylococcus aureus, UniProt Q9F1K0 1-1065).
T4 sequence: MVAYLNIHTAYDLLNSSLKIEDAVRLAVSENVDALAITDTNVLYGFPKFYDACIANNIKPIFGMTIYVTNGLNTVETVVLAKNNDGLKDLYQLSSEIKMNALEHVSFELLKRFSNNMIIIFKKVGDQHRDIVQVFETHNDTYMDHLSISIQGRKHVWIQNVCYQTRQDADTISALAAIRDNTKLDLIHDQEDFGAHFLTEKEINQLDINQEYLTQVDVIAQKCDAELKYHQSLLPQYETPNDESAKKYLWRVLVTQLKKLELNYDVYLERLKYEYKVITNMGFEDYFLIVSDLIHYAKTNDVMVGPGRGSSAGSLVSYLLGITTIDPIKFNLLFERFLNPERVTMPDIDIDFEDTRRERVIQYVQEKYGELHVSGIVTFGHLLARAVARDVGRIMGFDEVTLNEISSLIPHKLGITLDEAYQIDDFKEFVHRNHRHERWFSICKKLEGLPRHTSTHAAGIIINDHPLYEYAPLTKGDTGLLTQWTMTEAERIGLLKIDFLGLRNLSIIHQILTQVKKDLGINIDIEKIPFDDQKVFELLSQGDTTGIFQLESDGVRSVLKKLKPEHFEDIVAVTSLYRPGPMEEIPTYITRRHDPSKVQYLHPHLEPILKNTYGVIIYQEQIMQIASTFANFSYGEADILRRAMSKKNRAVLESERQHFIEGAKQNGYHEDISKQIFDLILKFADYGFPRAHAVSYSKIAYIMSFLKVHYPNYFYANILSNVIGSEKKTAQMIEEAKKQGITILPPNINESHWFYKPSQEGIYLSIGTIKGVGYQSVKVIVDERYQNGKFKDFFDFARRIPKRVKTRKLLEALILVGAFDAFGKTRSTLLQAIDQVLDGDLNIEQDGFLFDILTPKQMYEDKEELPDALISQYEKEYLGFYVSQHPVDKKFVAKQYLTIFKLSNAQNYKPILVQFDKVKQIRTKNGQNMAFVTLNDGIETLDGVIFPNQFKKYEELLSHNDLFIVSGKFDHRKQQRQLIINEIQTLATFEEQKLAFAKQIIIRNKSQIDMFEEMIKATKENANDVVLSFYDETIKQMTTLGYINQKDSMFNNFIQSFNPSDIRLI
The data set is described as above. Particulars: protein: recombinant; label: 5'-Cy3 on primer (strand 1); 24 bp duplex, 5' overhang 30 nt on template.

Data set [8] has as its target T3, DnaE1 (replicative DNA polymerase). Kind of data set: cryo-EM structure (2.9 Å); 10 uM nargenicin, 5 mM MgCl2. Particulars: protein: recombinant.

T1 sequence (P10443 whole entry): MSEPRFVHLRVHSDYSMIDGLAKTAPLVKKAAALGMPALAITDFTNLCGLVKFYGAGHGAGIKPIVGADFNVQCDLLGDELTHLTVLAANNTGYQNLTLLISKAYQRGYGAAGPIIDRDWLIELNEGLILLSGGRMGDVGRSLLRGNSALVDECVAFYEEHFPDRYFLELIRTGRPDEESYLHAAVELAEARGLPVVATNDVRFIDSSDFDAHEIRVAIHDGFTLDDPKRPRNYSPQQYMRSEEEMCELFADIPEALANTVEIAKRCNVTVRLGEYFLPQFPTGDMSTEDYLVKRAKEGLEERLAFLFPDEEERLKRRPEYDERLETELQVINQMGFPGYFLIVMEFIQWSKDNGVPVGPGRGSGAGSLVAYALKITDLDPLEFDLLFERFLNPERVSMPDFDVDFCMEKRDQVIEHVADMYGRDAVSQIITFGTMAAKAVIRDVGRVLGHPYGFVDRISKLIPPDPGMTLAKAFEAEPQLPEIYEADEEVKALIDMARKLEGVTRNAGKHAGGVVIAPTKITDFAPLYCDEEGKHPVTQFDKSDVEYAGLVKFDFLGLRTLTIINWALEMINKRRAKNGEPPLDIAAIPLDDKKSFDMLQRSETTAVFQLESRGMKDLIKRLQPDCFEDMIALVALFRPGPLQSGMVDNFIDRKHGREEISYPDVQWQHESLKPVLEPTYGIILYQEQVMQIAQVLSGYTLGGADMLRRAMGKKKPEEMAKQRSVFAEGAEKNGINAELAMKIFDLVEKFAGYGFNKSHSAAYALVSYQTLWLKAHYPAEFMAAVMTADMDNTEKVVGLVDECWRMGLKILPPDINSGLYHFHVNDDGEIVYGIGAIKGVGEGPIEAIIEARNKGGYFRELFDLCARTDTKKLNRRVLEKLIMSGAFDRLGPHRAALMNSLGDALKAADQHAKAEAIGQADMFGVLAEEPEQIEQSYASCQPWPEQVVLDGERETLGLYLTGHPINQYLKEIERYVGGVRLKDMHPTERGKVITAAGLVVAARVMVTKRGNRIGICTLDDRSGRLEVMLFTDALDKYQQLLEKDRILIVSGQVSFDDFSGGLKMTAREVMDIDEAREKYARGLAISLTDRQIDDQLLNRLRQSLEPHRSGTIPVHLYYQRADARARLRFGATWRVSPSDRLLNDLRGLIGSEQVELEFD

Regarding `COC1CC2C=CC3C4OC2(/C(C)=C/C(C)C(C(C)O)OC1=O)C3C(O)C(C)C4OC(=O)c1ccc[nH]1` (centres unmarked) [nargenicin], the results for the IC50 in data set [1], in data set [2] and in data set [3] were 13000 nM, 125 nM and 6 nM, respectively.

B1: primed DNA substrate (anisotropy) (dsDNA)
DNA 1: GGTAACGCCAGGGTTTTCCCAGTC
DNA 2: CGCTCACTGGCCGTCGTTTTACAACGTCGTGACTGGGAAAACCCTGGCGTTACC
Take B1: the Kd in data set [4] came out at 250 nM; in data set [5], 85 nM; in data set [6], 12000 nM; in data set [7], 6 nM.

B2: cryo-EM primer/template substrate (dsDNA)
DNA 1: GCACCTAAAGTTGGGAGTCCTTCGTCCTT
DNA 2: GATAGAGCAGAAGGACGAAGGACTCCCAACTTTAGGTG
modifications: phosphorothioate bond between the last two nt of the primer (T*T)
In the case of B2, the binding result in data set [8] is “binds”.
